Results as given in patent US20020065226A1.
Blank lines part the entries; values can stand above or below the molecule they belong to. Non-standard residues stand in square brackets, D forms with d. pGlu = O=C1CC[C@@H](C(=O)O)N1; azaGly = NNC(=O)O

Legend:
[1] = target: chorionic peptidase-1 (C-ase-1) (human); test: competitive inhibition of C-ase-1 degradation of GnRH (competitor)
[2] = target: chorionic peptidase-1 (C-ase-1) (human); test: inhibition of C-ase-1 degradation of GnRH (competitor)
[3] = target: chorionic peptidase-1 (C-ase-1) (human); test: competitive inhibition of C-ase-1 degradation of GnRH
[4] = target: chorionic peptidase-1 (C-ase-1) (human); test: cell-based or functional assay
[5] = target: human placental GnRH receptor (human) (UniProt P30968); test: competitive radioreceptor assay on human term placental membranes, radiolabeled Buserelin as competitor
[6] = target: chorionic peptidase-1 (C-ase-1) (human); test: competitive inhibition of C-ase-1 degradation of mammalian GnRH (competitor)
[7] = target: human placental GnRH receptor (human) (UniProt P30968); test: competitive radioreceptor assay, human term placental GnRH receptors, 125I-Buserelin as competitor
[8] = target: chorionic peptidase-1 (C-ase-1) (human); test: C-ase-1 degradation assay, Lineweaver-Burke double reciprocal plot
[9] = target: baboon ovarian enzymatic activity that degrades GnRH; test: degradation assay with baboon ovarian homogenate, double reciprocal plot
[10] = target: human placental GnRH receptor (human) (UniProt P30968); test: homologous radioreceptor assay, average of three human term placental membrane preparations
[11] = target: baboon ovarian GnRH receptor (baboon); test: radioreceptor assay, baboon ovary membrane fraction, radiolabeled D-Arg(6)-chicken II GnRH-aza-Gly(10)-amide
[12] = target: human placental GnRH receptor (human) (UniProt P30968); test: radioreceptor assay on human term placental membranes, radiolabeled D-Arg(6)-chicken II GnRH-aza-Gly-amide as label
[13] = target: human placental GnRH receptor (human) (UniProt P30968); test: homologous radioreceptor assay, placenta 2 membrane preparation, radiolabeled D-Arg(6)-chicken II GnRH-aza-Gly-amide as label
[14] = target: human placental GnRH receptor (human) (UniProt P30968); test: competitive radioreceptor assay on human term placental membranes, radiolabeled Buserelin as competitor, double reciprocal plot
[15] = target: baboon ovarian GnRH receptor (baboon); test: radioligand binding, baboon ovary membrane fraction
[16] = target: human placental GnRH receptor (human) (UniProt P30968); test: homologous radioreceptor assay on human term placental membranes, radiolabeled D-Arg-chicken II GnRH-aza-Gly-amide as label
[17] = target: baboon endometrium GnRH receptor (baboon); test: receptor binding, baboon endometrium (stroma and epithelium)

Molecule: 6D-Trp-GnRH-10 ethylamide (from UniProt P01148 24-32) (peptide)
Ki [1]: 60 nM

Molecule: 9OH-Pro-GnRH (from UniProt P01148 24-92) (peptide)
relative potency compared to GnRH (relative potency) [2]: 1.5

Molecule: Antide (peptide)
Ki [1]: 120 nM
fold less potent than GnRH [3]: 3 fold
fold more potent than salmon or chicken II GnRH [3]: 2 fold
relative potency compared to GnRH (relative potency) [2]: 0.6

Molecule: Mammalian D-Trp (6) GnRH (from UniProt P01148 24-92) (peptide)
Ki [1]: 20 nM

Molecule: chicken I GnRH (peptide)
Ki [1]: 80 nM
fold less potent than GnRH [3]: 3 fold
fold more potent than salmon or chicken II GnRH [3]: 2 fold
relative potency compared to GnRH (relative potency) [2]: 0.6

Molecule: chicken II GnRH-ethylamide (peptide)
Ki [1]: 130 nM
fold less active than GnRH [3]: > 200 fold
Kd [7]: 30 nM
fold activity over GnRH [7]: 33 fold

Molecule: des-Gly10, D-Leu6-GnRH-ethylamide (from UniProt P01148 24-92) (peptide)
Ki [1]: 80 nM

Molecule: des-Gly10-GnRH-ethylamide (from UniProt P01148 24-92) (peptide)
Ki [1]: 70 nM

Molecule: lamprey GnRH (peptide)
Ki [1]: 20 nM
relative potency compared to GnRH (relative potency) [2]: 1.5

Molecule: [pGlu]HWSH[dR]WYP[azaGly]-NH2 (also: also used radioiodinated as label) [D-Arg(6)-chicken II GnRH-aza-Gly(10)-amide]
fold affinity over chicken II GnRH or Buserelin [5]: 2 fold
fold affinity over mammalian GnRH [5]: 60 fold
Kd [10]: 93 nM
Kd [11]: 10 nM
fold affinity over mammalian GnRH [12]: 25 fold
Kd [13]: 68 nM
Kd [14]: 175 nM
specific activity of binding, fold over placental membrane preparations [15]: 50 to 100 fold
fold change of affinity against the assay with the Buserelin label [16]: 2 fold
Kd [17]: 60 nM

Second part, the molecule after the results:

Ki [1]: 110 nM
rate of degradation by C-ase-1 (fold of the rate for mammalian GnRH) [4]: 0.25
Molecule: Buserelin (from UniProt P01148 24-32) (peptide)

Ki [1]: 200 nM
Molecule: D-Arg (6)-salmon GnRH-aza-Gly (10)-amide (peptide)

fold potency over mammalian GnRH [5]: 3 fold
Ki [1]: 200 nM
relative potency compared to GnRH (relative potency) [2]: 0.2
potency relative to mammalian GnRH [6]: 0.167 fold
Molecule: chicken II GnRH (peptide)

Ki [1]: 30 nM
Ks [8]: 30 nM
Ks [9]: 30 nM
Molecule: mammalian GnRH (from UniProt P01148 24-33) (peptide)

Ki [1]: 300 nM
relative potency compared to GnRH (relative potency) [2]: 0.2
Molecule: salmon GnRH (peptide)
